Patent US10941182 (Amgen, dated 2021)
Like-named read-outs stand apart in the source and are kept apart here. Starred links: 1 amine or outer side, 2 acyl side, 3 side chain; linkers in the order of their positions; H or OH if unused. Non-standard residues stand in square brackets, D forms with d. Primed or numbered codes have the meaning given here. *: point of attachment. dBip = N[C@H](Cc1ccc(-c2ccccc2)cc1)C(=O)O; Oic = O=C(O)[C@@H]1C[C@@H]2CCCC[C@@H]2N1; dPhe(4-Cl) = N[C@H](Cc1ccc(Cl)cc1)C(=O)O; Phe(4-I) = N[C@@H](Cc1ccc(I)cc1)C(=O)O; γGlu = O=C(O)[C@H](CCC(=O)[*:2])N[*:1]; d1Nal = N[C@H](Cc1cccc2ccccc12)C(=O)O; NMeR = CN[C@@H](CCCNC(=N)N)C(=O)O; Tridecanoyl = CCCCCCCCCCCCC(=O)*; hArg = N=C(N)NCCCC[C@H](N)C(=O)O; Cha = N[C@@H](CC1CCCCC1)C(=O)O; NMeL = CN[C@@H](CC(C)C)C(=O)O; AC4Abu″ = not defined here; Nle = CCCC[C@H](N)C(=O)O; AEEA = NCCOCCOCC(=O)O

T1: human APJ receptor (human, UniProt P35414 1-380)
T1 sequence (looked up): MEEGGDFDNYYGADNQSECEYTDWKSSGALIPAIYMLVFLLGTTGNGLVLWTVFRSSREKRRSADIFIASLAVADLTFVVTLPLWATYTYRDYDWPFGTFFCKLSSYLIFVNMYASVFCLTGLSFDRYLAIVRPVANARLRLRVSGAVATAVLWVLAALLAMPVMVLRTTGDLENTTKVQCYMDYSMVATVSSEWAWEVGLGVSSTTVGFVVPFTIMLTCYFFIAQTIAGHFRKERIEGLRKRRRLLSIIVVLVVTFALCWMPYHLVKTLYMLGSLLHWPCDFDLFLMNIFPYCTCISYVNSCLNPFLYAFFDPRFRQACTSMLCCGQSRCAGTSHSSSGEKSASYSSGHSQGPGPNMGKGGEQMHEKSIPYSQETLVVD

T2: rat APJ receptor (rat, UniProt Q9JHG3 1-377)
T2 sequence (looked up): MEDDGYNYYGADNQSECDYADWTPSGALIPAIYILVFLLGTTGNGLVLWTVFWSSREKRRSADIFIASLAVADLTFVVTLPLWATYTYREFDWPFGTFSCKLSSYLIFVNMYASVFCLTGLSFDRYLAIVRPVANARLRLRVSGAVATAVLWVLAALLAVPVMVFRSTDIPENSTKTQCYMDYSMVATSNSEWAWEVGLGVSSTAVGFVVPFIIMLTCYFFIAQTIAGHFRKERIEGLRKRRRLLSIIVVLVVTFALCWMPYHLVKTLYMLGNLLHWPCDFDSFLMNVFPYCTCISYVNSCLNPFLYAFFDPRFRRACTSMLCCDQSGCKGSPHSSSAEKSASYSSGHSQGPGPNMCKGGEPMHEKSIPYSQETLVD

T3: rat APJ receptor (rat, UniProt Q9JHG3 1-377)
T3 sequence (looked up): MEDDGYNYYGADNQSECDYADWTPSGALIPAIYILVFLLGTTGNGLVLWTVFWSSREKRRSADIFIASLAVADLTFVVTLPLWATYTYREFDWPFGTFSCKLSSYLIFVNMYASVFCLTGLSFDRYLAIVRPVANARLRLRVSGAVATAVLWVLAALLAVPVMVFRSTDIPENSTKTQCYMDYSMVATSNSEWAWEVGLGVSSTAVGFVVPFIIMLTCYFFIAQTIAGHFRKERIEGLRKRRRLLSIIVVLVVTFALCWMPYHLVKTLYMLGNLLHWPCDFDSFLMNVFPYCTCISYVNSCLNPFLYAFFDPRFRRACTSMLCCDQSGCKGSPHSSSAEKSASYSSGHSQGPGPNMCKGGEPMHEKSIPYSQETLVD


Tests used:
Assay in all cases: cell-based or functional assay
human APJ receptor = target: T1, human APJ receptor
rat APJ receptor [1] = target: T2, rat APJ receptor
rat APJ receptor [2] = target: T3, rat APJ receptor; remark: listed apart in the source

Row | Binder | EC50 Human APJ Receptor (human APJ receptor) [µM] | EC50 Rat APJ Receptor (rat APJ receptor [1]) [µM] | EC50 Rat APJ Receptor (rat APJ receptor [2]) [µM]
1 | Tridecanoyl-[γGlu][AEEA][AEEA][hArg][dR]Q[Nle]P[dR][NMeL]AHKG[Oic][Phe(4-I)]P[dBip]-OH (SMILES CCCCCCCCCCCCC(=O)N[C@@H](CCC(=O)NCCOCCOCC(=O)NCCOCCOCC(=O)N[C@@H](CCCCNC(=N)N)C(=O)N[C@H](CCCNC(=N)N)C(=O)N[C@@H](CCC(N)=O)C(=O)N[C@@H](CCCC)C(=O)N1CCC[C@H]1C(=O)N[C@H](CCCNC(=N)N)C(=O)N(C)[C@@H](CC(C)C)C(=O)N[C@@H](C)C(=O)N[C@@H](Cc1c[nH]cn1)C(=O)N[C@@H](CCCCN)C(=O)NCC(=O)N1[C@H](C(=O)N[C@@H](Cc2ccc(I)cc2)C(=O)N2CCC[C@H]2C(=O)N[C@H](Cc2ccc(-c3ccccc3)cc2)C(=O)O)C[C@@H]2CCCC[C@@H]21)C(=O)O) [SEQ ID NO: 322] | 0.0163 | 0.0265 | 
2 | Tridecanoyl-[γGlu][AEEA][AEEA][hArg][dR]Q[hArg]P[dR][NMeL]SA[Nle]G[Oic][Phe(4-I)]P[dBip]-OH (SMILES CCCCCCCCCCCCC(=O)N[C@@H](CCC(=O)NCCOCCOCC(=O)NCCOCCOCC(=O)N[C@@H](CCCCNC(=N)N)C(=O)N[C@H](CCCNC(=N)N)C(=O)N[C@@H](CCC(N)=O)C(=O)N[C@@H](CCCCNC(=N)N)C(=O)N1CCC[C@H]1C(=O)N[C@H](CCCNC(=N)N)C(=O)N(C)[C@@H](CC(C)C)C(=O)N[C@@H](CO)C(=O)N[C@@H](C)C(=O)N[C@@H](CCCC)C(=O)NCC(=O)N1[C@H](C(=O)N[C@@H](Cc2ccc(I)cc2)C(=O)N2CCC[C@H]2C(=O)N[C@H](Cc2ccc(-c3ccccc3)cc2)C(=O)O)C[C@@H]2CCCC[C@@H]21)C(=O)O) [SEQ ID NO: 324] | 0.0149 | 0.0204 | 
3 | Tridecanoyl-[γGlu][AEEA][AEEA][hArg][dR]Q[Nle]P[dR][NMeL]AAKG[Oic][Phe(4-I)]P[dBip]-OH (SMILES CCCCCCCCCCCCC(=O)N[C@@H](CCC(=O)NCCOCCOCC(=O)NCCOCCOCC(=O)N[C@@H](CCCCNC(=N)N)C(=O)N[C@H](CCCNC(=N)N)C(=O)N[C@@H](CCC(N)=O)C(=O)N[C@@H](CCCC)C(=O)N1CCC[C@H]1C(=O)N[C@H](CCCNC(=N)N)C(=O)N(C)[C@@H](CC(C)C)C(=O)N[C@@H](C)C(=O)N[C@@H](C)C(=O)N[C@@H](CCCCN)C(=O)NCC(=O)N1[C@H](C(=O)N[C@@H](Cc2ccc(I)cc2)C(=O)N2CCC[C@H]2C(=O)N[C@H](Cc2ccc(-c3ccccc3)cc2)C(=O)O)C[C@@H]2CCCC[C@@H]21)C(=O)O) [SEQ ID NO: 334] | 0.0341 | 0.0447 | 
4 | Tridecanoyl-[γGlu][AEEA][AEEA][hArg][dR]Q[hArg]P[dR][NMeL]SH[Nle]G[Oic][Phe(4-I)]P[dBip]-OH (SMILES CCCCCCCCCCCCC(=O)N[C@@H](CCC(=O)NCCOCCOCC(=O)NCCOCCOCC(=O)N[C@@H](CCCCNC(=N)N)C(=O)N[C@H](CCCNC(=N)N)C(=O)N[C@@H](CCC(N)=O)C(=O)N[C@@H](CCCCNC(=N)N)C(=O)N1CCC[C@H]1C(=O)N[C@H](CCCNC(=N)N)C(=O)N(C)[C@@H](CC(C)C)C(=O)N[C@@H](CO)C(=O)N[C@@H](Cc1c[nH]cn1)C(=O)N[C@@H](CCCC)C(=O)NCC(=O)N1[C@H](C(=O)N[C@@H](Cc2ccc(I)cc2)C(=O)N2CCC[C@H]2C(=O)N[C@H](Cc2ccc(-c3ccccc3)cc2)C(=O)O)C[C@@H]2CCCC[C@@H]21)C(=O)O) [SEQ ID NO: 312] | 0.0136 | 0.0106 | 

Next, values leading:

Row | EC50 Human APJ Receptor (human APJ receptor) [µM] | EC50 Rat APJ Receptor (rat APJ receptor [1]) [µM] | EC50 Rat APJ Receptor (rat APJ receptor [2]) [µM] | Binder
5 |  |  | 0.0138 | Tridecanoyl-[AC4Abu″][AEEA][AEEA][hArg]Q[dR]P[NMeR][Cha]SHKG[Oic][Nle]P[dPhe(4-Cl)]-OH (reading uncertain) [apelin polypeptide SEQ ID NO: 230]
6 |  |  | 0.0303 | Tridecanoyl-[AC4Abu″][AEEA][AEEA][hArg]Q[dR]P[NMeR][Cha]SHKG[Oic][Nle][d1Nal]-OH (reading uncertain) [apelin polypeptide SEQ ID NO: 165]
